Where a chain is given by its changes, count along the chain named.
B1: 1D03 anti-DLL3 trispecific protein (other)
chain: EVQLVESGGGLVQPGGSLTLSCVASGSTSSINAIGWYRRAPGKQRELVAGISSDGSKVLADSVKGRFTISRDNAKNSVYLQMNSLRAEDTAVYYCYYFRIVSGSSMGYWGQGTLVTVSS
notes: not shown: linker 1808, anti-albumin sdAb, linker 1808, anti-CD3 fragment, His6 1819
B2: 2B02 anti-DLL3 trispecific protein (other)
chain: B1 chain with I34M, G35A, L59Y, I100T, V101K, G107R
notes: as for B1
B3: 1F05 anti-DLL3 trispecific protein (other)
chain: B1 chain with S29R, I34M, L59Y, R99H, I100T, G107R
notes: as for B1
B4: 1E04 anti-DLL3 trispecific protein (other)
chain: B1 chain with S30R, A33G, I34M, V48P, V58A, L59Y, I100T, V101A, S104T, G107R
notes: as for B1
B5: 2A09 anti-DLL3 trispecific protein (other)
chain: B1 chain with I31R, I34M, D54N, L59Y, A60S, I100T, G107S
notes: as for B1
B6: 1E08 anti-DLL3 trispecific protein (other)
chain: B1 chain with S27K, I34M, L59I, I100T, S102L, G107R
notes: as for B1
B7: 1E02 anti-DLL3 trispecific protein (other)
chain: B1 chain with S27Q, I34M, K57Q, L59Y, I100T, V101K, G107R
notes: as for B1
B8: 2B01 anti-DLL3 trispecific protein (other)
chain: B1 chain with S30L, I34M, L59Y, I100H, G107R
notes: as for B1
B9: 1G01 anti-DLL3 trispecific protein (other)
chain: B1 chain with I34M, G35A, L59Y, D61E, I100T, S104A, G107R
notes: as for B1
B10: 1H06 anti-DLL3 trispecific protein (other)
chain: B1 chain with S27T, I34M, L59Y, A60V, I100F, V101L, G107R
notes: as for B1
B11: 1F01 anti-DLL3 trispecific protein (other)
chain: B1 chain with I34M, L59Y, A60G, I100T, G103R, G107R
notes: as for B1
B12: 1F02 anti-DLL3 trispecific protein (other)
chain: B1 chain with I34M, G35A, V48A, G55Q, L59Y, V63A, I100T, G107S
notes: as for B1
B13: 1F07 anti-DLL3 trispecific protein (other)
chain: B1 chain with I34M, L59D, I100T, G107R
notes: as for B1
B14: 1H08 anti-DLL3 trispecific protein (other)
chain: B1 chain with S29F, I34M, I100L, G107R
notes: as for B1
B15: 1H010 anti-DLL3 trispecific protein (other)
chain: B1 chain with S29R, I34M, L59Y, A60N, I100T, G107R, Y108F
notes: as for B1
B16: 1G04 anti-DLL3 trispecific protein (other)
chain: B1 chain with I31T, I34M, I100T, S102N, G103L, G107R
notes: as for B1
B17: 1H02 anti-DLL3 trispecific protein (other)
chain: B1 chain with T28K, I34M, V48A, L59Y, D61Q, I100T, V101S, G107R
notes: as for B1
B18: 2A011 anti-DLL3 trispecific protein (other)
chain: B1 chain with L59Y, A60S, I100P, G107R
notes: as for B1
B19: 2A01 anti-DLL3 trispecific protein (other)
chain: B1 chain with I34M, L59V, I100T, V101L, G107R
notes: as for B1
B20: 1H07 anti-DLL3 trispecific protein (other)
chain: B1 chain with I34F, L59Y, A60S, I100T, G107R
notes: as for B1
B21: 1F08 anti-DLL3 trispecific protein (other)
chain: B1 chain with I34M, G35A, L59Y, A60K, I100N, G107R
notes: as for B1
B22: 1G07 anti-DLL3 trispecific protein (other)
chain: B1 chain with I34M, L59V, I100T, V101Y, G107R
notes: as for B1
B23: 1F012 anti-DLL3 trispecific protein (other)
chain: B1 chain with S27L, I34M, L59Y, A60Q, I100T, V101N, G107R
notes: as for B1
B24: 1H011 anti-DLL3 trispecific protein (other)
chain: B1 chain with L59Y, A60N, I100T, V101Q, G107R
notes: as for B1
B25: 1F09 anti-DLL3 trispecific protein (other)
chain: B1 chain with S27N, I34M, D54N, L59Y, I100T, S102T, G107R
notes: as for B1
B26: 1E012 anti-DLL3 trispecific protein (other)
chain: B1 chain with I31T, I34M, L59Y, A60V, I100T, G107V
notes: as for B1
B27: 2A05 anti-DLL3 trispecific protein (other)
chain: B1 chain with S27R, I34M, L59Y, A60N, I100T, S104T, G107R
notes: as for B1
B28: 1D012 anti-DLL3 trispecific protein (other)
chain: B1 chain with S30H, I34M, K57R, L59Y, I100T, S104G, G107R
notes: as for B1
B29: 1D010 anti-DLL3 trispecific protein (other)
chain: B1 chain with I31N, I34M, G35A, L59Y, A60T, I100T, V101R, G107R
notes: as for B1
B30: 1D04 anti-DLL3 trispecific protein (other)
chain: B1 chain with I31K, I34M, L59Y, I100T, S104A, G107R
notes: as for B1
B31: 1F06 anti-DLL3 trispecific protein (other)
chain: B1 chain with S27T, I34M, L59I, I100T, S102L, G107R
notes: as for B1
B32: 1E010 anti-DLL3 trispecific protein (other)
chain: B1 chain with T28V, I34M, L59Y, A60I, I100T, S104L, G107R
notes: as for B1
B33: 2B010 anti-DLL3 trispecific protein (other)
chain: B1 chain with I31R, I34M, V58L, L59Y, A60L, I100T, S102L, G107R
notes: as for B1
B34: 1E09 anti-DLL3 trispecific protein (other)
chain: B1 chain with I34M, G35A, L59Y, A60T, I100T, V101R, G107R
notes: as for B1
B35: 2B07 anti-DLL3 trispecific protein (other)
chain: B1 chain with I34F, L59Y, I100T, S102R, G107R
notes: as for B1
B36: 2B05 anti-DLL3 trispecific protein (other)
chain: B1 chain with S27T, I34M, S56T, L59Y, R99H, I100T, G107R
notes: as for B1
B37: 2B012 anti-DLL3 trispecific protein (other)
chain: B1 chain with S27T, I34M, L59Y, A60N, I100T, S102R, G107R
notes: as for B1
B38: 2B011 anti-DLL3 trispecific protein (other)
chain: B1 chain with S27N, I34M, K57R, L59Y, I100T, G107R, Y108S
notes: as for B1
B39: 2A03 anti-DLL3 trispecific protein (other)
chain: B1 chain with S27T, I34M, L59Y, A60G, I100T, S105A, G107R
notes: as for B1
B40: 1F011 anti-DLL3 trispecific protein (other)
chain: B1 chain with L59Y, I100T, S102K, G107R
notes: as for B1
B41: 1H01 anti-DLL3 trispecific protein (other)
chain: B1 chain with I34M, G35A, V48A, G55N, L59Y, I100T, V101R, G107R
notes: as for B1
B42: 1G05 anti-DLL3 trispecific protein (other)
chain: B1 chain with V58Y, L59Y, I100T, S102T, G107R
notes: as for B1
B43: 1G011 anti-DLL3 trispecific protein (other)
chain: B1 chain with I34M, G35A, L59Y, R99K, I100T, G107R
notes: as for B1
B44: 1E05 anti-DLL3 trispecific protein (other)
chain: B1 chain with S30V, I34M, G35A, V48A, L59Y, D61K, V63A, R99N, I100T, G107R
notes: as for B1
B45: 1D09 anti-DLL3 trispecific protein (other)
chain: B1 chain with I34M, G35A, L59Y, A60T, I100T, V101I, G107R
notes: as for B1
B46: 1E011 anti-DLL3 trispecific protein (other)
chain: B1 chain with S27N, I34M, L59Y, A60Y, I100T, S102R, M106Q, G107R
notes: as for B1
B47: 2B03 anti-DLL3 trispecific protein (other)
chain: B1 chain with I34M, K57L, L59Y, R99T, I100T, G107R
notes: as for B1
B48: 2A06 anti-DLL3 trispecific protein (other)
chain: B1 chain with I31R, I34M, L59T, I100T, V101R, G107R
notes: as for B1
B49: 1G06 anti-DLL3 trispecific protein (other)
chain: B1 chain with L59Y, D61V, I100K, M106A, G107R
notes: as for B1
B50: 1D06 anti-DLL3 trispecific protein (other)
chain: B1 chain with I34M, G55N, L59Y, I100T, S102H, G107R
notes: as for B1
B51: 1D011 anti-DLL3 trispecific protein (other)
chain: B1 chain with I34M, G35A, G55N, L59Y, I100T, S104H, G107R
notes: as for B1
B52: 1D08 anti-DLL3 trispecific protein (other)
chain: B1 chain with S27L, I34M, L59Y, I100M, G107R
notes: as for B1
B53: 1E07 anti-DLL3 trispecific protein (other)
chain: B1 chain with I34M, G35A, L59Y, A60N, I100T, S102R, M106Q, G107R
notes: as for B1
B54: 1F04 anti-DLL3 trispecific protein (other)
chain: B1 chain with S27G, I34M, L59Y, A60S, I100T, M106A, G107R
notes: as for B1
B55: 1F010 anti-DLL3 trispecific protein (other)
chain: B1 chain with S30R, I34M, L59Y, A60K, I100T, G107R
notes: as for B1
B56: 1G09 anti-DLL3 trispecific protein (other)
chain: B1 chain with I34M, L59Y, I100T, G103K, G107R
notes: as for B1
B57: 2A08 anti-DLL3 trispecific protein (other)
chain: B1 chain with S29K, I34M, L59Y, A60R, I100T, V101S, G107R
notes: as for B1

These binders were tested against T1, biotinylated human DLL3 protein expressed as a human IgG1 fusion protein (human, UniProt Q9NYJ7 27-492, limits assumed, biotinylated) (assay: Octet BLI, single 50 nM).
T1 sequence: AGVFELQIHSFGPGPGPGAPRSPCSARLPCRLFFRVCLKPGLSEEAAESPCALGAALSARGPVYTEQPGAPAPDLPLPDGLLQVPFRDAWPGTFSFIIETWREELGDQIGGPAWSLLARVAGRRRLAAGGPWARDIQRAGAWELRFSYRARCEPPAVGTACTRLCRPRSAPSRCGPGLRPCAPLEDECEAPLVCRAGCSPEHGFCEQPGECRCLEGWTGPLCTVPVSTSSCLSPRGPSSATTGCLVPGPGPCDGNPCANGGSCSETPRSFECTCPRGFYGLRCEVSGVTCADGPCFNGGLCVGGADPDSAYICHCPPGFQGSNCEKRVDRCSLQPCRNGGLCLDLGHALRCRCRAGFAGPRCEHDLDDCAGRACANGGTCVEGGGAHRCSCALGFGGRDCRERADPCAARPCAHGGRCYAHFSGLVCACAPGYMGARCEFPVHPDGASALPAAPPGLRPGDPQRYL
Protocol: Using the conditioned medium with known concentrations of the anti-DLL3 trispecific proteins, the binding affinities of the anti-DLL3 trispecific proteins toward human DLL3 protein were measured using a method where biotinylated version of human DLL3 protein were expressed as a human IgG1 fusion protein, and the binding affinity measurement was carried out in an Octet instrument with streptavidin tips.
A Kd of 5.8 nM was found for B1 in this work.
A Kd of 6.6 nM was found for B2 in this work.
A Kd of 5.8 nM was found for B3 in this work.
A Kd of 8.1 nM was found for B4 in this work.
A Kd of 10 nM was found for B5 in this work.
A Kd of 9.4 nM was found for B6 in this work.
A Kd of 7 nM was found for B7 in this work.
A Kd of 10 nM was found for B8 in this work.
A Kd of 6.6 nM was found for B9 in this work.
A Kd of 14 nM was found for B10 in this work.
A Kd of 9.4 nM was found for B11 in this work.
A Kd of 4 nM was found for B12 in this work.
A Kd of 13 nM was found for B13 in this work.
A Kd of 17 nM was found for B14 in this work.
A Kd of 8.4 nM was found for B15 in this work.
A Kd of 11 nM was found for B16 in this work.
A Kd of 10 nM was found for B17 in this work.
A Kd of 4 nM was found for B18 in this work.
A Kd of 8 nM was found for B19 in this work.
A Kd of 6.2 nM was found for B20 in this work.
A Kd of 31 nM was found for B21 in this work.
A Kd of 8.3 nM was found for B22 in this work.
A Kd of 5.8 nM was found for B23 in this work.
A Kd of 6.2 nM was found for B24 in this work.
A Kd of 35 nM was found for B25 in this work.
A Kd of 5.3 nM was found for B26 in this work.
A Kd of 8.9 nM was found for B27 in this work.
A Kd of 9.3 nM was found for B28 in this work.
A Kd of 5 nM was found for B29 in this work.
A Kd of 9.7 nM was found for B30 in this work.
A Kd of 8.9 nM was found for B31 in this work.
A Kd of 5.7 nM was found for B32 in this work.
A Kd of 10 nM was found for B33 in this work.
A Kd of 4.4 nM was found for B34 in this work.
A Kd of 5.7 nM was found for B35 in this work.
A Kd of 7.4 nM was found for B36 in this work.
A Kd of 7.3 nM was found for B37 in this work.
A Kd of 11 nM was found for B38 in this work.
A Kd of 8.2 nM was found for B39 in this work.
A Kd of 5 nM was found for B40 in this work.
A Kd of 5.7 nM was found for B41 in this work.
A Kd of 14 nM was found for B42 in this work.
A Kd of 6.8 nM was found for B43 in this work.
A Kd of 14 nM was found for B44 in this work.
A Kd of 5.2 nM was found for B45 in this work.
A Kd of 2.7 nM was found for B46 in this work.
A Kd of 7.6 nM was found for B47 in this work.
A Kd of 8.9 nM was found for B48 in this work.
A Kd of 26 nM was found for B49 in this work.
A Kd of 6.8 nM was found for B50 in this work.
A Kd of 4.4 nM was found for B51 in this work.
A Kd of 10 nM was found for B52 in this work.
A Kd of 7.1 nM was found for B53 in this work.
A Kd of 10 nM was found for B54 in this work.
A Kd of 6.3 nM was found for B55 in this work.
A Kd of 10 nM was found for B56 in this work.
A Kd of 7.7 nM was found for B57 in this work.

From US20240141072A1 (published 2024)
